Experiment: soluble fraction after stress (log2 fold change); higher = more stays soluble; pooled small domains, quantitative proteomics
Conditions: stress: 50 degC
Procedure, shortened: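 Custom libraries of small protein domains were pooled and measured in a high-throughput format, with quantitative proteomics as the read-out. Each library was stressed at 50°C. The value is the log2 fold change in the amount of each protein that stays soluble after stress, used as a measure of aggregation propensity; higher values mean more of the protein stays soluble.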

Sequence | soluble fraction (log2)
HMQSHIVPDVKSQHIAQAKALLESKQMKAVVIDSNFVKGLPAGIVLDQTPIGGARVKENRTIYLTINTL | -0.557
HMSRLLTTRQREVFEVATREGFWDVPRRINLSELAKVLGVAKSTLSSQLQRIESAVFHAFTDEIRRQS | -2.16
HMQLTPAQHAILAYAIEHTGGKIEWFPDNIKGGARTKVLEGLFNKALITRDSTDWFVAAEGYDALGR | -0.549
HMTHAISKTYAVTGEQLKNGFTLTHTFANGSTRRVDVYPGSRSGKVIAVRNTTDDTTEWIRIVEG | 0.0444
HMTAMQYVTIKDIADALGISKSSVSRALAGDVHNVSAQTIERVRAKALEMGYLRNNAAVNLR | -0.0718
HMEKILSYKALMNDAGKRIDQFLANNEKDISRTRIKSLILEGSLKLDNNIINDPSYKIKENDVFTLFIPEA | -0.429
HMHDLSQQIVRYLIQQGGSSSLTDKSDPQEIYRTFKVSKKKYKQALGNLYKSKTIVITSGKIELVD | -2.69
HMQNDILIQADEIVGDYFDMDKEALKMNKQAVIADIEKRQATAQGDEASALHYAKQKVENEFEDDGSQKD | 0.185
HMVMATPHNTAKAGDIAKTVIMPGDPLRAKYIADNYLDNAVQFNVVRNIYGYTGVYRGTDISVMASGM | 0.128
HMSDIPEGYMSRVQLGDEWGIHLATFDKAVIAVKEKLGTVVFIDKSNNTTAGYSPEQQTIIYDWLAEN | -1.82
HMRDLVTYVVQVNGKLRGKLEVSPSTDDNSLKTMALELENVQRALEGLSVKKVIVIPGKMVSIAAG | 0.167
HMREITVEELYELEGIRIVGTIPGISAWVAESGRQMVFLVGQKVKGHDLLEVGESRVVLRKGDSVVNVLL | -0.0622
HMRIEDTMDYINKIKEKLKNNGGVITSKEFTRSNIPTIYLTRMVETGELIRIDRGIYINSSG | -0.538
HMFAQDKKFITYKVKEGETVQSISKALSITPYDLLKLNPDIKDNVSQDDLLIIPNKQYDPLGDI | 0.144
HMDDFNLSPREKDVLGHLVKGNSYKMIADELQIGYDTVHSHIKKIYKKLHVNSMSEAVAKALKNKL | 0.543
HMATARPPPPPESRVEVLFDGRWYAGTVVGGALDEHRATVFFDADRLSQVINFAETGIRVLGT | -0.0673
HMPTEAIVLQQIQIRQSPSGNSKSLQQILPGAKIKITSESSVKGWKQVSLDGGQKGWIPTAAIGL | -0.0262
HMEIPRYRLIGADGGRMVDLGEGQGAIPPVDVKRGMIDMPGLGKGYYTADGKSAVITNADGSKTRVL | -0.034
HMYSSIIGIAFTRAENKPAAPTGGSYSNPHPVDGNWKAAPYDGDGNLWYSIRHFNENVDIQDREWSDPTLG | -0.24
HMAATNVKVPDLKGWDYNNAVGKYGDKLSFVKKSIYSDSVSKGIIIYNARVGETVAQGTTIEVTVSLGPKG | -0.205
HMKVDRLVSMILILLEQQRVGAQELADRFEVSVRTIYRDMEAINQAGIPVRSTSGVGGGFEIM | -0.34
HMVAGHLQEKKGYFYMVLTYRDHEGKRKSKWLPTGLTIKGNKKRAQDLLQDARKNFVPDIPT | -1.32
HMTNKQEYAYQWLKSSIIENKIKPSTLLVERHLSEMLHISRTPVRTALMRLADEGFVVISPGRGMVVA | -2.03
HMLKPKDLHLGDSVRVLSLNLKGTVSSLPDTKGFLFVQMGIMRSKLHISDLQLIDEPVITAP | -0.128
HMNDTSLIIDNLMLKLGNNIKNFSEIYSLLRKNLAEYGEEFIKSKVDYVLKNFNDNIEENLKKLLTE | -0.218
HMSMTLSVLDDVRGLSESRRKQLFHSFGSIKKLREQSKETLMSIPYLPEKVALELYDKLHEE | -0.218

Sequence | soluble fraction (log2)
HMETAVMPDVMKLDSTTAIQALKDKGFATIETYEVKSDRPAGVVVRQSETADSVVALSKEILLGVSNGADY | 0.304
HMSEEELETSGLVKRSAKGNLYDIFRHRVMVPIIDVRGAIIAFGGRVLDDSKPKYINSPETMVY | 0.0208
HMEDKIEESLEDNISELFAKTKDKYTLINDLYSKGYTVEELSRFSGLPSGEVRLVISLNSKN | 0.0392
HMEGTEVTTEPPGAQIEFDGKQFGPTPTRVPGLAAGKQFRITLAGYQEAKPKLKNNPKEGEPLSFTLTAI | 0.406
HMQQEAVNLVQSRGQQAIEPVHIMQGVMKVGENVTNFIFQKLGMNGQQVALVVDKQIDSLPKVSGGEPYL | 0.0273
HMSASNSIDFANRMIYNKNQVAVFNFGKHMGRPVLEVLKSDPSYYDWMMKGDFPMDTKRKLTEIKLQGF | -0.755
HMLLTPLEETRLVIEEIVIPQKLTIDLLPRSSAIRKLQHELITHYQLRGTSVGNEPNRRLRIYP | -0.244
HMATSNDTQITGSLALRFDGSGDTFTVNVNGDDKLEINTEGTVIYKPLTTAPTYVSGGLFFSSSGDFYVG | -0.0386
HMLSVTLTVLPQQAGERLDAFAAAESTLSRSAAAKLIEDGQITVNGARAAKNYRLRAGDVIEIDEPEPI | 0.00149
HMEDPPISQEQRQALFKMAHDHLGKDEGNKAILTLIQSHGLNSTTGMKVSTYNTIMEELVSTIQSLAA | -0.0686
HMGYNDQEVKSNLITLLSTSKTGLSGVEISAQLGINRVTMTKFLNVFAAEGIIKQKNIGNLNLWLVEEGTE | -1.58
HMVYLPSSIKNIPTKYGEMMVANFKMDELQANSKNGWVSMVISERREPSEKGATHYAYVNTY | 0.432
HMKDGAKYFQLFGLLKNEINRGIYQSGQKIPGENELAEKYGMSRQTVRQALSLLEQESLIERRQGSGTYVR | 0.108
HMQDLAKRWVEEFGDLLYKYTLPRVSDSGIAKDLVQETFLAAWRNIDNFKGEASEKNWLFTILKNKIIDH | -0.213
HMSMQIILLDKVVNLGGLGDVVKVKDGYARNYLIPQGKAKRANTANLAEFEARRVELERLAAEQLAQAQA | 0.0814
HMVFSNLGSRGEEVRQIQTKLKELGYLQGNVDGIYGNQTKQAVTAFQRDHGLSADGIAGEKTLAALGIG | 0.315
HMIERVLRTEEHIEAFAGEEVEAKLFAPIDGKKTLRGILGGIEDGRVILTVGDTEYRIEHAKISRLTTVFD | -0.122
HMATVHPIRIQGGMTTQQGGKTVWLWVSDEGRLMTEDEIAGESGGTVSSRMVRGVRVLTGTGVIYG | -2.02
HMGSLVQTAMQAVTKHIHDNAMRVGDTLPGEGHFAETLGVSRAVMREAFGALAALKLIDVGNGRKPRVGR | -0.819
HMQQSVSSLVRRYMLQTIPGINFSLKSTALALNMSDRTLQRKLLSENTSYQIILDDVRKELAIKYLKE | -3.19
HMKAMIIVMKPGADMATISKVLKTIETNGFKPHLSKGEETTVIGVIGDERKLNPDIFSTLEGVERIVPVA | 0.255
HMDSRVRHAVLTTLLGKRIVDDLVEKGELPGTPLVLATAPGLDRDLEQLIAQRVVTALLTTV | -0.082
HMGKSETALELIKRGHRLIADDAVEITRIGSTLSGTAPELIRNYLEVRGVGVIDVEKLFGVGAVQDSTQI | 0.0401
HMPQGFEDLTEREREVLTLIAEGRTNQEIADALVISIKTVNRHRENIMAKLNLHSRVELVRYAIAQGLI | -0.474
HMKRLLLPGDLAGVRRHLLDRENSFHILRVLRLARGSTIEAMDDAGNRFSATLAGVKAGRALFDLAAKI | -1.54
HMAIDLSLIPGNLLRELHGAVEDGDMYRIRELIRSISAVDEKVGKELLLLAERYDYERLLELVND | -0.384

Sequence | soluble fraction (log2)
HMNFTEAEQRFHFLEDQRQRGVLSLEQYRAELAQLRVTDAWGRLWMLQEQTGQWFVFHEGQWRPSQ | -0.124
HMKLRKINLIGIFGSKTAPSALVRLTNGRVLKVGLGELLDGGRVTAIGRSSLTYNKSGKSITLNMPI | -2.73
HMNDVGKVLNQLGERDRMILLLTYWDELPLKEAARILEVSENNAKIILFRARSRFASLWSAGS | -3.13
HMSALAEELIKKNQAMILTIKPRDTIWGIANRFQSPPSEKFINQIIELNQVDPYRLRIGQDLLIPLN | -0.584
HMVDALYGQGARVMRDFSEGSGIVKLDNGETWTGRLSPAASGASLYVGDRVIVTRIDGAIAEVTPP | -0.0539
HMATAEETTPLWARNRLSHAIFGPGSVTGEDERSFEVAFDNGDTLNFSKKSAHLYFTAMSSR | -0.0942
HMQEEELYPRLEEVINQHRGKGEDLIMVLHKAQNLFGYLPRRAQEMVAEGLNVSLNEVYGVITFYNFFST | -0.0621
HMQKPIKPVKMHTVGPKENLSSIGRMYEVNGRVLANYNNIDYDKGLTIGQVLKIPPKGTTLEQVT | 0.431
HMQEPVYRPVFPGMTDADRQSAMEALKEGGFSPRLNRQTGQLEVDASGYHEAKIYLASQGIPAE | 0.124
HMELDMTFGEKIQKLRKESGLSQEELSYQLGVSRQAISKWERDSGYPETEKIVRMSKIFDVTLDYLLNE | -0.458
HMGDVKLNAIYNFLKEFSALNGFPPSVREIGAKFGIKSTSTVHYYLEKLKQSGVIQQEENKKRAVVIN | -0.369
HMFTEEQMDWLRLIKDHIVASLSILPEDLELTPFDRKGGLLGFYDAFGDEYEKILQEMNEELVA | -0.588
HMDGYVPAERIASEVGVSARTITREMHGLEMTLMPYGIALLRRTGAGFMLAGTAKALADLRKHMTEDADTQ | -0.00161
HMDENILKTRIEDLDLSVRTIKALTGASIRTVSGLARKKESDLLEISGLGDKGIQEIKRALGSLGITL | 0.0868
HMLPIMDRLITAGISINTAKKWVDKFGDKRIKQNLAYSLAKQKEGKVKTNFVGYLAKAIEEDWGSGWE | -0.557
HMKEQIKVPDLSNKTPEEAKKELNTLGLGARKGGEESSDTVEEGLITRQEPAAGEQVDKNTQILFYVSTGK | 0.0624
HMLHMKAALGELMSIPGMRSELAGTLFDRGYTSLAQLRAATLDDLERVNGLERADARRIHDFLRKS | -0.0753
HMTIYPFNPNYLKDYQAYRVGLSLKEIDALLDFRSSGQWINSAEDFQRITGVSDSVLEQLIPYFKFS | -2.49
HMTGELEVTAAGLSPEKLLNLAAKNHITLSNVKRLSYTQLSFRIGPADYNRLKKLLPEGRYKLNVGSS | -0.289
HMNMAEETLDTAAKILKAAEEEFMEKGYGNAKMMSIAARAGVSHSMLHYYYRSKGKLFQMIFDEKA | -1.4
HMGVISRVITFWQNGFTVDDGPLRAFDDPANMAFMESIGRGEAPAELAPKTRTQRVNINLVQRHEPYSAPK | -0.0726
HMINYYELLKLDMNAAHEEINDAIKLESEKNTIPEDQIRTMKSIFFNTEFKKEYDQRLMNFLLT | -0.319
HMSDQTYVKDPETGEIFRVHKRVWETGEFWRDPVWGNILGGVERGSELERLLREEGWRPLQQSLEGFPEQ | -0.104
HMKQVTVGGTINAGGARIYADSYGNGGGRQTFGSDPIYTVLQERNGYILTRWHKLSSGYTGWFKKSDVSA | -0.298

Reference: the domain aggregation screens of Martell et al. (2025)
